Publication doi:10.1101/693663 (bioRxiv, 2019)
Blank lines part the entries; values can stand above or below the molecule they belong to.

Assays:
[1] = target: ASK1(1290–1374), C-terminal SAM domain of ASK1 (human) (UniProt Q99683); experiment: SAXS
[2] = target: ASK2(1216–1288), C-terminal SAM domain of ASK2 (human) (UniProt O95382); experiment: AUC
SAXS = target: the molecule itself; experiment: SAXS
GST-ASK2 SAM domain = target: T1, GST-ASK2 SAM domain (human, UniProt O95382 1216-1288); experiment: pull-down
T1 sequence (looked up): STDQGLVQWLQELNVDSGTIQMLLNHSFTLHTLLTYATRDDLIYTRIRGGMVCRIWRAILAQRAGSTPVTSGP

SEC = target: the molecule itself; experiment: SEC

stoichiometry N [1]: 2
Molecule: ASK1(1290–1374), C-terminal SAM domain of ASK1 (from UniProt Q99683 1290-1374) (domain or fragment)

stoichiometry N [2]: 2
Molecule: ASK2(1216–1288), C-terminal SAM domain of ASK2 (from UniProt O95382 1216-1288) (domain or fragment)

binding result (GST-ASK2 SAM domain): binds
B1: ASK3(1241–1313), C-terminal SAM domain of ASK3 (domain or fragment, human, UniProt Q6ZN16 1241-1313, looked up)
chain: DKELIDWLRLQGADAKTIEKIVEEGYTLSDILNEITKEDLRYLRLRGGLLCRLWSAVSQYRRAQEASETKDKA
stoichiometry N (SAXS): 6

Further lines, the molecule ahead of its results:

B2: ASK3 SAM domain Q1304A (domain or fragment, human, UniProt Q6ZN16 1241-1313, looked up)
chain: DKELIDWLRLQGADAKTIEKIVEEGYTLSDILNEITKEDLRYLRLRGGLLCRLWSAVSQYRRAAEASETKDKA
binding result (SEC): binds

B3: ASK3 SAM domain V1262N (domain or fragment, human, UniProt Q6ZN16 1241-1313, looked up)
chain: DKELIDWLRLQGADAKTIEKINEEGYTLSDILNEITKEDLRYLRLRGGLLCRLWSAVSQYRRAQEASETKDKA
binding result (SEC): binds

B4: ASK3 SAM domain K1242E (domain or fragment, human, UniProt Q6ZN16 1241-1313, looked up)
chain: DEELIDWLRLQGADAKTIEKIVEEGYTLSDILNEITKEDLRYLRLRGGLLCRLWSAVSQYRRAQEASETKDKA
binding result (SEC): binds
